# Measurements from US20250064952A1 (ACCELERON PHARMA, published 2025).
# T1: activin B (UniProt P09529 293-407)
# T1 sequence (looked up): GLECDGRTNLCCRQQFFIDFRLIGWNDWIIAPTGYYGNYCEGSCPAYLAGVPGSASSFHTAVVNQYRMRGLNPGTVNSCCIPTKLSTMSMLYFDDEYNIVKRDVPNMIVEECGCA
# T2: GDF8 (UniProt O14793 267-375)
# T2 construct: also called myostatin
# T2 sequence (looked up): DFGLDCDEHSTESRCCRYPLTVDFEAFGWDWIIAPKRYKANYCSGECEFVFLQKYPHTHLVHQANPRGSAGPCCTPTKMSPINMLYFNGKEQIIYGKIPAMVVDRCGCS
# T3: BMP6 (UniProt P22004 382-513, limits assumed)
# T3 sequence (looked up): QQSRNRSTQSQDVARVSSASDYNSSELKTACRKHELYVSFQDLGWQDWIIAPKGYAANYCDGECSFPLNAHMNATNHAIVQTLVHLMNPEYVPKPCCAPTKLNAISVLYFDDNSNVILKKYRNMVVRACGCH
# T4: activin AC (UniProt P08476 311-426; P55103 237-352)
# T4 construct: Heterodimer of beta A and beta C
# T4 sequence (looked up) 1: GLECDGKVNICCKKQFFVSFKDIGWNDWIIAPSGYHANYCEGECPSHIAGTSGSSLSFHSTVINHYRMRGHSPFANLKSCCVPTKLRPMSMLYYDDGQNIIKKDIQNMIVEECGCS
# T4 sequence (looked up) 2: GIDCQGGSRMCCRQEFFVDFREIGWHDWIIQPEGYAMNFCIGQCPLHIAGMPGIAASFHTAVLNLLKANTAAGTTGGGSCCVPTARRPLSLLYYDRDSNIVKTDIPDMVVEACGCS
# T5: BMP5 (UniProt P22003 317-454, limits assumed)
# T5 sequence (looked up): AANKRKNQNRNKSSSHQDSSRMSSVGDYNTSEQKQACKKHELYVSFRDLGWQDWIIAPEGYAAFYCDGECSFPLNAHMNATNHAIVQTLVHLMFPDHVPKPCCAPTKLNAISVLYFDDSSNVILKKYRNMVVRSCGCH
# B1: GDF11 (ligand, UniProt O95390 299-407, looked up)
# chain: NLGLDCDEHSSESRCCRYPLTVDFEAFGWDWIIAPKRYKANYCSGQCEYMFMQKYPHTHLVQQANPRGSAGPCCTPTKMSPINMLYFNDKQQIIYGKIPGMVVDRCGCS
# notes: also called BMP11
# B2: ActRIIB-Fc homodimer (Fc fusion, human, UniProt Q13705 19-137, looked up, not shown: a dimerising Fc or GST)
# chain: SGRGEAETRECIYYNANWELERTNQSGLERCEGEQDKRLHCYASWRNSSGTIELVKKGCWLDDFNCYDRQECVATEENPQVYFCCCEGNFCNERFTHLPEAGGPEVTYEPPPTAPTLLT
# notes: extracellular domain; also called unmodified ActRIIB-Fc homodimer; ActRIIB-Fc:ActRIIB-Fc homodimer
# B3: BMP9 (ligand, UniProt Q9UK05 320-429, looked up)
# chain: SAGAGSHCQKTSLRVNFEDIGWDSWIIAPKEYEAYECKGGCFFPLADDVTPTKHAIVQTLVHLKFPTKVGKACCVPTKLSPISVLYKDDMGVPTLKYHYEGMSVAECGCR
# notes: also called GDF2
# B4: BMP10 (ligand, UniProt O95393 317-424, looked up)
# chain: NAKGNYCKRTPLYIDFKEIGWDSWIIAPPGYEAYECRGVCNYPLAEHLTPTKHAIIQALVHLKNSQKASKACCVPTKLEPISILYLDKGVVTYKFKYEGMAVSECGCR
# B5: activin A (ligand, UniProt P08476 311-426, looked up)
# chain: GLECDGKVNICCKKQFFVSFKDIGWNDWIIAPSGYHANYCEGECPSHIAGTSGSSLSFHSTVINHYRMRGHSPFANLKSCCVPTKLRPMSMLYYDDGQNIIKKDIQNMIVEECGCS
# B6: GDF3 (ligand, UniProt Q9NR23 251-364, looked up)
# chain: AAIPVPKLSCKNLCHRHQLFINFRDLGWHKWIIAPKGFMANYCHGECPFSLTISLNSSNYAFMQALMHAVDPEIPQAVCIPTKLSPISMLYQDNNDNVILRHYEDMVVDECGCG
# notes: also called VGR2
# How the values were obtained:
# [1] = target: B5; assay: SPR (Biacore), 37 C, anti-Fc capture, ligand in flow
# Experimental: (§1) A Biacore™-based binding assay was used to compare the ligand binding kinetics of an ActRIIB-Fc:ActRIIB(L79E)-Fc heterodimer with those of unmodified ActRIIB-Fc homodimer. Fusion proteins were captured onto the system using an anti-Fc antibody. Ligands were then injected and allowed to flow over the captured receptor protein at 37° C. Results are summarized in the table below, in which ligand off-rates (kd) most indicative of effective ligand traps are denoted in bold.
# [2] = target: B3; assay: as above
# Experimental: as §1
# [3] = target: B4; assay: as above
# Experimental: as §1
# [4] = target: T1, activin B; assay: as above
# Experimental: as §1
# [5] = target: B6; assay: as above
# Experimental: as §1
# [6] = target: T2, GDF8; assay: as above
# Experimental: as §1
# [7] = target: B1; assay: as above
# Experimental: as §1
# [8] = target: T3, BMP6; assay: as above
# Experimental: as §1
# [9] = target: B2; assay: SPR (Biacore), anti-Fc capture, ligand in flow
# Experimental: (§2) A Biacore™-based binding assay was used to compare ligand binding selectivity of the ActRIIB-Fc:ALK4-Fc heterodimeric complex described above with that of ActRIIB-Fc and ALK4-Fc homodimer complexes. The ActRIIB-Fc:ALK4-Fc heterodimer, ActRIIB-Fc homodimer, and ALK4-Fc homodimer were independently captured onto the system using an anti-Fc antibody. Ligands were injected and allowed to flow over the captured receptor protein. Results are summarized in the table below, in which ligand off-rates (kd) most indicative of effective ligand traps are denoted by bold font.
# [10] = target: B2; assay: SPR (Biacore), anti-Fc capture, ligand in flow; remark: listed apart in the source
# Experimental: (§3) A Biacore™-based binding assay was used to compare ligand binding selectivity of the ActRIIB-Fc:ALK7-Fc heterodimeric complex described above with that of ActRIIB-Fc and ALK7-Fc homodimeric complexes. The ActRIIB-Fc:ALK7-Fc heterodimer, ActRIIB-Fc homodimer, and ALK7-Fc homodimer were independently captured onto the system using an anti-Fc antibody. Ligands were injected and allowed to flow over the captured receptor protein. Results are summarized in the table below, in which ligand off-rates (kd) most indicative of effective ligand traps are denoted by bold font.
# [11] = target: B2; assay: SPR (Biacore), 37 C, anti-Fc capture, ligand in flow
# Experimental: as §1
# [12] = target: T3, BMP6; assay: SPR (Biacore), anti-Fc capture, ligand in flow
# Experimental: as §2
# [13] = target: T4, activin AC; assay: SPR (Biacore), anti-Fc capture, ligand in flow
# Experimental: as §3
# [14] = target: T5, BMP5; assay: SPR (Biacore), anti-Fc capture, ligand in flow
# Experimental: as §3
# [15] = target: T3, BMP6; assay: SPR (Biacore), anti-Fc capture, ligand in flow; remark: listed apart in the source
# Experimental: as §3
binder,measurement,setting,value
"ActRIIB-Fc:ActRIIB(L79E)-Fc heterodimer (Fc fusion, also called ActRIIB-Fc:ActRIIB(L79E)-Fc heteromer) chain 1: GRGEAETRECIYYNANWELERTNQSGLERCEGEQDKRLHCYASWRNSSGTIELVKKGCWLDDFNCYDRQECVATEENPQVYFCCCEGNFCNERFTHLPEAGGPEVTYEPPPTAPTGGGTHTCPPCPAPELLGGPSVFLFPPKPKDTLMISRTPEVTCVVVDVSHEDPEVKFNWYVDGVEVHNAKTKPREEQYNSTYRVVSVLTVLHQDWLNGKEYKCKVSNKALPAPIEKTISKAKGQPREPQVYTLPPSRKEMTKNQVSLTCLVKGFYPSDIAVEWESNGQPENNYKTTPPVLKSDGSFFLYSKLTVDKSRWQQGNVFSCSVMHEALHNHYTQKSLSLSPGK chain 2: GRGEAETRECIYYNANWELERTNQSGLERCEGEQDKRLHCYASWRNSSGTIELVKKGCWEDDFNCYDRQECVATEENPQVYFCCCEGNFCNERFTHLPEAGGPEVTYEPPPTAPTGGGTHTCPPCPAPELLGGPSVFLFPPKPKDTLMISRTPEVTCVVVDVSHEDPEVKFNWYVDGVEVHNAKTKPREEQYNSTYRVVSVLTVLHQDWLNGKEYKCKVSNKALPAPIEKTISKAKGQPREPQVYTLPPSREEMTKNQVSLTCLVKGFYPSDIAVEWESNGQPENNYDTTPPVLDSDGSFFLYSDLTVDKSRWQQGNVFSCSVMHEALHNHYTQKSLSLSPG",Kd,[1],0.17 nM
same,fold faster off-rate vs ActRIIB-Fc homodimer,[1],~10 fold
same,koff,[1],0.0015 s⁻¹
same,kon,[1],8.8e+06 M⁻¹ s⁻¹
same,Kd,[2],> 2.8 nM
same,Kd,[3],0.042 nM
same,fold faster off-rate vs ActRIIB-Fc homodimer,[3],~10 fold
same,koff,[3],0.002 s⁻¹
same,kon,[3],4.8e+07 M⁻¹ s⁻¹
same,Kd,[4],0.025 nM
same,koff,[4],0.00021 s⁻¹
same,kon,[4],8.3e+06 M⁻¹ s⁻¹
same,Kd,[5],10 nM
same,koff,[5],0.0059 s⁻¹
same,kon,[5],580000 M⁻¹ s⁻¹
same,Kd,[6],0.15 nM
same,koff,[6],0.0005 s⁻¹
same,kon,[6],3.4e+06 M⁻¹ s⁻¹
same,Kd,[7],0.009 nM
same,koff,[7],0.00036 s⁻¹
same,kon,[7],4e+07 M⁻¹ s⁻¹
same,Kd,[8],0.056 nM
same,koff,[8],0.018 s⁻¹
same,kon,[8],3.3e+08 M⁻¹ s⁻¹
B1,Kd,[9],0.002 nM
same,koff,[9],0.00011 s⁻¹
same,kon,[9],5e+07 M⁻¹ s⁻¹
same,Kd,[10],0.002 nM
same,koff,[10],0.00015 s⁻¹
same,kon,[10],9.6e+07 M⁻¹ s⁻¹
same,Kd,[11],0.004 nM
same,koff,[11],0.00017 s⁻¹
same,kon,[11],4.1e+07 M⁻¹ s⁻¹
B2,Kd,[12],0.19 nM
same,koff,[12],0.0068 s⁻¹
same,kon,[12],3.2e+07 M⁻¹ s⁻¹
same,Kd,[13],0.16 nM
same,koff,[13],0.0031 s⁻¹
same,kon,[13],2e+07 M⁻¹ s⁻¹
same,Kd,[14],2.9 nM
same,koff,[14],0.075 s⁻¹
same,kon,[14],2.6e+07 M⁻¹ s⁻¹
same,Kd,[15],0.16 nM
same,koff,[15],0.0039 s⁻¹
same,kon,[15],2.4e+07 M⁻¹ s⁻¹
same,Kd,[8],0.056 nM
same,koff,[8],0.0074 s⁻¹
same,kon,[8],1.3e+08 M⁻¹ s⁻¹
B3,Kd,[9],0.077 nM
same,koff,[9],0.0011 s⁻¹
same,kon,[9],1.4e+07 M⁻¹ s⁻¹
same,Kd,[10],0.01 nM
same,koff,[10],0.001 s⁻¹
same,kon,[10],1.2e+08 M⁻¹ s⁻¹
same,Kd,[11],0.25 nM
same,koff,[11],0.0013 s⁻¹
same,kon,[11],5e+06 M⁻¹ s⁻¹
B4,Kd,[9],0.011 nM
same,koff,[9],0.00026 s⁻¹
same,kon,[9],2.3e+07 M⁻¹ s⁻¹
same,Kd,[10],0.025 nM
same,koff,[10],0.00015 s⁻¹
same,kon,[10],5.9e+06 M⁻¹ s⁻¹
same,Kd,[11],0.004 nM
same,koff,[11],0.0002 s⁻¹
same,kon,[11],5.1e+07 M⁻¹ s⁻¹
B5,Kd,[9],0.019 nM
same,koff,[9],0.00023 s⁻¹
same,kon,[9],1.2e+07 M⁻¹ s⁻¹
same,Kd,[10],0.011 nM
same,koff,[10],0.00014 s⁻¹
same,kon,[10],1.3e+07 M⁻¹ s⁻¹
same,Kd,[11],0.025 nM
same,koff,[11],0.00019 s⁻¹
same,kon,[11],7.4e+06 M⁻¹ s⁻¹
B6,Kd,[9],1.5 nM
same,koff,[9],0.0022 s⁻¹
same,kon,[9],1.4e+06 M⁻¹ s⁻¹
same,Kd,[10],1.5 nM
same,koff,[10],0.0022 s⁻¹
same,kon,[10],1.4e+06 M⁻¹ s⁻¹
same,Kd,[11],1.5 nM
same,koff,[11],0.0022 s⁻¹
same,kon,[11],1.4e+06 M⁻¹ s⁻¹
